{
  "source": "patent US20210380703A1",
  "binders": {"B1": {"name": "374_H04 (antibody, V domains shown)", "VH": "EVQLLESGGGLVQPGGSLRLSCAASGFTFDSYSMNWVRQAPGKGLEWVSGINYNSGYTSYADSVKGRFTISRDNSKNTLYLQMNSLRAEDTAVYYCARSANWHDTALDYWGQGTLVTVSS", "VL": "DIQMTQSPSSLSASVGDRVTITCRASQSILTYLNWYQQKPGKAPKLLIYAATSRASGVPSRFSGSGSGTDFTLTISSLQPEDFATYYCQQSYDNPLTFGGGTKVEIK"}, "B2": {"name": "375_D04 (antibody, V domains shown)", "VH": "EVQLLESGGGLVQPGGSLRLSCAASGFTFDDSSMHWVRQAPGKGLEWVSNINYNGGYTGYADSVKGRFTISRDNSKNTLYLQMNSLRAEDTAVYYCAKSANWHDTALDYWGQGTLVTVSS", "VL": "DIQMTQSPSSLSASVGDRVTITCRASQSILSYVNWYQQKPGKAPKLVIYAATSRASGVPSRFSGSGSGTDFTLTISSLQPEDFATYYCQQSYELPLTFGGGTKVEIK"}, "B3": {"name": "374_H06 (antibody, V domains shown)", "VH": "EVQLLESGGGLVQPGGSLRLSCAASGFTFSSYGMNWVRQAPGKGLEWVSNINYNGGYTGYADSVKGRFTISRDNSKNTLYLQMNSLRAEDTAVYYCARSANWHDTALDYWGQGTLVTVSS", "VL": "DIQMTQSPSSLSASVGDRVTITCRASQSIVSYVNWYQQKPGKAPKLVIYAATSRASGVPSRFSGSGSGTDFTLTISSLQPEDFATYYCQQSYNLPLTFGGGTKVEIK"}, "B4": {"name": "375_H12 (antibody, V domains shown)", "VH": "EVQLLESGGGLVQPGGSLRLSCAASGFTFSSYGMNWVRQAPGKGLEWVAGINYNGGYKGYADSVKGRFTISRDNSKNTLYLQMNSLRAEDTAVYYCARSANWHDTALDYWGQGTLVTVSS", "VL": "DIQMTQSPSSLSASVGDRVTITCRASQSILTYLNWYQQKPGKAPKLLIYYVTNRQSGVPSRFSGSGSGTDFTLTISSLQPEDFATYYCQQSYSIPLTFGGGTKVEIK"}, "B5": {"name": "376_B05 (antibody, V domains shown)", "VH": "EVQLLESGGGLVQPGGSLRLSCAASGFTFSSYSMNWVRQAPGKGLEWVANINYNGGYTGYADSVKGRFTISRDNSKNTLYLQMNSLRAEDTAVYYCARSANWHDTALDYWGQGTLVTVSS", "VL": "DIQMTQSPSSLSASVGDRVTITCRASQSIISYVNWYQQKPGKAPKLLIYAATSRASGVPSRFSGSGSGTDFTLTISSLQPEDFATYYCQQSYELPLTFGGGTKVEIK"}, "B6": {"name": "374_H07 (antibody, V domains shown)", "VH": "EVQLLESGGGLVQPGGSLRLSCAASGFTFDSYGMNWVRQAPGKGLEWVANINYNGGYTGYADSVKGRFTISRDNSKNTLYLQMNSLRAEDTAVYYCARSANWHDTALDYWGQGTLVTVSS", "VL": "DIQMTQSPSSLSASVGDRVTITCRASQSILTYLNWYQQKPGKAPKLLIYAATSRASGVPSRFSGSGSGTDFTLTISSLQPEDFATYYCQQSYETPLTFGGGTKVEIK"}, "B7": {"name": "374_H09 (antibody, V domains shown)", "VH": "EVQLLESGGGLVQPGGSLRLSCAASGFTFSSYSMNWVRQAPGKGLEWVANINYNSGYKSYADSVKGRFTISRDNSKNTLYLQMNSLRAEDTAVYYCARSANWHDTALDYWGQGTLVTVSS", "VL": "DIQMTQSPSSLSASVGDRVTITCRASQSILSYLNWYQQKPGKAPKLVIYAVTSLASGVPSRFSGSGSGTDFTLTISSLQPEDFATYYCQQSYDLPLTFGGGTKVEIK"}, "B8": {"name": "376_A04 (antibody, V domains shown)", "VH": "EVQLLESGGGLVQPGGSLRLSCAASGFTFDSYSMNWVRQAPGKGLEWVSNINYNGGYTSYADSVKGRFTISRDNSKNTLYLQMNSLRAEDTAVYYCARSANWHDTALDYWGQGTLVTVSS", "VL": "DIQMTQSPSSLSASVGDRVTITCRASQSIVTYLNWYQQKPGKAPKLVIYAATSRASGVPSRFSGSGSGTDFTLTISSLQPEDFATYYCQQSYDSPLTFGGGTKVEIK"}, "B9": {"name": "375_C06 (antibody, V domains shown)", "VH": "EVQLLESGGGLVQPGGSLRLSCAASGFTFDDYGMHWVRQAPGKGLEWVASINYNSGYTSYADSVKGRFTISRDNSKNTLYLQMNSLRAEDTAVYYCARSANWHDTALDYWGQGTLVTVSS", "VL": "DIQMTQSPSSLSASVGDRVTITCRASQSILTYVNWYQQKPGKAPKLVIYATTSRASGVPSRFSGSGSGTDFTLTISSLQPEDFATYYCQQSYDSPLTFGGGTKVEIK"}, "B10": {"name": "376_B11 (antibody, V domains shown)", "VH": "EVQLLESGGGLVQPGGSLRLSCAASGFTFSSYSMNWVRQAPGKGLEWVSGINYNGGYTSYADSVKGRFTISRDNSKNTLYLQMNSLRAEDTAVYYCARSANWHDTALDYWGQGTLVTVSS", "VL": "DIQMTQSPSSLSASVGDRVTITCRASQSILSYVNWYQQKPGKAPKLVIYAATSRASGVPSRFSGSGSGTDFTLTISSLQPEDFATYYCQQSYDLPLTFGGGTKVEIK"}, "B11": {"name": "375_D05 (antibody, V domains shown)", "VH": "EVQLLESGGGLVQPGGSLRLSCAASGFTFSSYSMNWVRQAPGKGLEWVASINYNSGYTSYADSVKGRFTISRDNSKNTLYLQMNSLRAEDTAVYYCARSANWHDTHLDYWGQGTLVTVSS", "VL": "DIQMTQSPSSLSASVGDRVTITCRASQSIVSYLNWYQQKPGKAPKLLIYAATSLHSGVPSRFSGSGSGTDFTLTISSLQPEDFATYYCQQSYDTPLTFGGGTKVEIK"}, "B12": {"name": "376_A12 (antibody, V domains shown)", "VH": "EVQLLESGGGLVQPGGSLRLSCAASGFTFSSYSMNWVRQAPGKGLEWVANINYNSGYKGYADSVKGRFTISRDNSKNTLYLQMNSLRAEDTAVYYCARSANWHDTALDYWGQGTLVTVSS", "VL": "DIQMTQSPSSLSASVGDRVTITCRASQSILSYVNWYQQKPGKAPKLVIYAATSRASGVPSRFSGSGSGTDFTLTISSLQPEDFATYYCQQSYDTPLTFGGGTKVEIK"}, "B13": {"name": "376_B09 (antibody, V domains shown)", "VH": "EVQLLESGGGLVQPGGSLRLSCAASGFTFDSYSMNWVRQAPGKGLEWVANINYNSGYKGYADSVKGRFTISRDNSKNTLYLQMNSLRAEDTAVYYCARSANWHDTALDYWGQGTLVTVSS", "VL": "DIQMTQSPSSLSASVGDRVTITCRASQSILTYVNWYQQKPGKAPKLVIYAATSRASGVPSRFSGSGSGTDFTLTISSLQPEDFATYYCQQSYDLPLTFGGGTKVEIK"}, "B14": {"name": "375_E07 (antibody, V domains shown)", "VH": "EVQLLESGGGLVQPGGSLRLSCAASGFTFSDYSMNWVRQAPGKGLEWVAGINYNSGYKGYADSVKGRFTISRDNSKNTLYLQMNSLRAEDTAVYYCARSANWHDTALDYWGQGTLVTVSS", "VL": "DIQMTQSPSSLSASVGDRVTITCRASQSIVTYLNWYQQKPGKAPKLLIYVVTNRESGVPSRFSGSGSGTDFTLTISSLQPEDFATYYCQQSYETPLTFGGGTKVEIK"}, "B15": {"name": "376_C01 (antibody, V domains shown)", "VH": "EVQLLESGGGLVQPGGSLRLSCAASGFTFDSYSMNWVRQAPGKGLEWVAGINYNGGYTSYADSVKGRFTISRDNSKNTLYLQMNSLRAEDTAVYYCARSANWHDTALDYWGQGTLVTVSS", "VL": "DIQMTQSPSSLSASVGDRVTITCRASQSILTYLNWYQQKPGKAPKLLIYAATSLASGVPSRFSGSGSGTDFTLTISSLQPEDFATYYCQQSYDNPLTFGGGTKVEIK"}, "B16": {"name": "376_B04 (antibody, V domains shown)", "VH": "EVQLLESGGGLVQPGGSLRLSCAASGFTFDSYGMHWVRQAPGKGLEWVASINYNGGYTGYADSVKGRFTISRDNSKNTLYLQMNSLRAEDTAVYYCARSANWHDTALDYWGQGTLVTVSS", "VL": "DIQMTQSPSSLSASVGDRVTITCRASQSIVSYVNWYQQKPGKAPKLVIYAATSRASGVPSRFSGSGSGTDFTLTISSLQPEDFATYYCQQSYDTPLTFGGGTKVEIK"}, "B17": {"name": "375_A05 (antibody, V domains shown)", "VH": "EVQLLESGGGLVQPGGSLRLSCAASGFTFSSYGMNWVRQAPGKGLEWVANINYNGGYKGYADSVKGRFTISRDNSKNTLYLQMNSLRAEDTAVYYCARSANWHDTALDYWGQGTLVTVSS", "VL": "DIQMTQSPSSLSASVGDRVTITCRASQSILSYLNWYQQKPGKAPKLLIYAATSRASGVPSRFSGSGSGTDFTLTISSLQPEDFATYYCQQSYDLPLTFGGGTKVEIK"}, "B18": {"name": "376_A10 (antibody, V domains shown)", "VH": "EVQLLESGGGLVQPGGSLRLSCAASGFTFSDYGMNWVRQAPGKGLEWVSNINYNSGYKGYADSVKGRFTISRDNSKNTLYLQMNSLRAEDTAVYYCARSANWHDTALDYWGQGTLVTVSS", "VL": "DIQMTQSPSSLSASVGDRVTITCRASQSILSYLNWYQQKPGKAPKLLIYAATSRASGVPSRFSGSGSGTDFTLTISSLQPEDFATYYCQQSYESPLTFGGGTKVEIK"}, "B19": {"name": "376_C02 (antibody, V domains shown)", "VH": "EVQLLESGGGLVQPGGSLRLSCAASGFTFDSYGMNWVRQAPGKGLEWVSGINYNSGYTSYADSVKGRFTISRDNSKNTLYLQMNSLRAEDTAVYYCARSANWHDTALDYWGQGTLVTVSS", "VL": "DIQMTQSPSSLSASVGDRVTITCRASQSIVSYLNWYQQKPGKAPKLVIYAVTSRASGVPSRFSGSGSGTDFTLTISSLQPEDFATYYCQQSYDSPLTFGGGTKVEIK"}, "B20": {"name": "375_D07 (antibody, V domains shown)", "VH": "EVQLLESGGGLVQPGGSLRLSCAASGFTFSSYGMNWVRQAPGKGLEWVANINYNSGYTGYADSVKGRFTISRDNSKNTLYLQMNSLRAEDTAVYYCARSANWHDTALDYWGQGTLVTVSS", "VL": "DIQMTQSPSSLSASVGDRVTITCRASQSIITYLNWYQQKPGKAPKLLIYAATSRASGVPSRFSGSGSGTDFTLTISSLQPEDFATYYCQQSYDTPLTFGGGTKVEIK"}, "B21": {"name": "375_E01 (antibody, V domains shown)", "VH": "EVQLLESGGGLVQPGGSLRLSCAASGFTFSSYSMNWVRQAPGKGLEWVSGINYNSGYKSYADSVKGRFTISRDNSKNTLYLQMNSLRAEDTAVYYCARSANWHDTALDYWGQGTLVTVSS", "VL": "DIQMTQSPSSLSASVGDRVTITCRASQSILTYLNWYQQKPGKAPKLVIYAATSRASGVPSRFSGSGSGTDFTLTISSLQPEDFATYYCQQSDDSPLTFGGGTKVEIK"}, "B22": {"name": "375_D12 (antibody, V domains shown)", "VH": "EVQLLESGGGLVQPGGSLRLSCAASGFTFDSYGMNWVRQAPGKGLEWVSSINYNSGYTSYADSVKGRFTISRDNSKNTLYLQMNSLRAEDTAVYYCARSANWHDTALDYWGQGTLVTVSS", "VL": "DIQMTQSPSSLSASVGDRVTITCRASQSILTYVNWYQQKPGKAPKLVIYAATSRASGVPSRFSGSGSGTDFTLTISSLQPEDFATYYCQQSYETPLTFGGGTKVEIK"}},
  "data": [
    {"molecular_target": "human Fc (human)", "assay": "ELISA; negative control", "units": {"optical density": "OD"}, "values": [
      {"binder": "B1", "optical density": 0.167},
      {"binder": "B2", "optical density": 0.182},
      {"binder": "B3", "optical density": 0.166},
      {"binder": "B4", "optical density": 0.188},
      {"binder": "B5", "optical density": 0.242},
      {"binder": "B6", "optical density": 0.163},
      {"binder": "B7", "optical density": 0.158},
      {"binder": "B8", "optical density": 0.245},
      {"binder": "B9", "optical density": 0.2},
      {"binder": "B10", "optical density": 0.261},
      {"binder": "B11", "optical density": 0.202},
      {"binder": "B12", "optical density": 0.22},
      {"binder": "B13", "optical density": 0.227},
      {"binder": "B14", "optical density": 0.158},
      {"binder": "B15", "optical density": 0.324},
      {"binder": "B16", "optical density": 0.293},
      {"binder": "B17", "optical density": 0.202},
      {"binder": "B18", "optical density": 0.279},
      {"binder": "B19", "optical density": 0.222},
      {"binder": "B20", "optical density": 0.176},
      {"binder": "B21", "optical density": 0.164},
      {"binder": "B22", "optical density": 0.193}
    ]}
  ]
}
